Data as given in paper PMC5052118 (Nature structural & molecular biology, 2016).
Read-outs that look alike come from different tables or passages of the source.

How the values were obtained:
Cch [1] = target: T1, Cch (Staphylococcus aureus USA300, UniProt A0A0H2XHF3 1-595); assay: EMSA
CchWH = CchWH (Staphylococcus aureus USA300, UniProt A0A0H2XHF3 436-595); assay: EMSA
crystal structure = target: the molecule itself; assay: crystal structure
Cch [2] = target: T1, Cch; assay: EMSA; remark: listed apart in the source
LP1413 = target: T2, LP1413 (Staphylococcus aureus USA300, UniProt Q0WXP5 1-96); assay: EMSA
T2 sequence: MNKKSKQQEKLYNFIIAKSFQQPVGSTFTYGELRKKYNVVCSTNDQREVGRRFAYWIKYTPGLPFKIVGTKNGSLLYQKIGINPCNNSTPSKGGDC

B1: scc-emsa-3F/4R 60 bp duplex (3' end of cch) (dsDNA)
DNA 1: TTTTAAATCCGCTAATGAAGGGATAGGCCCTTCAGGAGTTCACGAAGATTTCTAATTGTC
DNA 2: GACAATTAGAAATCTTCGTGAACTCCTGAAGGGCCTATCCCTTCATTAGCGGATTTAAAA
binding result (Cch [1]): binds | binding result (CchWH): binds

B2: Selenomethionine-derivatized Cch-6xHis (enzyme)
chain: MSYTLFEIGPFALDSFGWKETIPPKKDGDSEKVVRMASPIIVNARFSDPITGVEKLIITNNNGKKDIFESDILTTRNLPSLIKYGYSINEKYIRSLSYALQLMRDRLPLSELYEGVGILETPFGYLISLDKVLKSIQFNQSSPSYPIVDSAYDLTPKGTFDNWFNMYIDEVKGHLLLELAVIFGISALVTSFLKHKHEIEFAGILFSFTGQSSTGKSTAAALAVSVAGNPTKGNETLFRSWNATRNALEGYLSNNYGIPIVFDELSSTTLRDTTGLLYSIAEGQGRQRSNVHGEVKTPKNWGTSVISTSEYSIFNDSAQNDGLRVRTIEINEQFTTNATNADNIKKAVALNYGHVLPLVAKYLINREDEVIQWFYKEVDWFEAKLKDETNNTGIRMFKRYAVITTSAKILGRVLSTDIDIANIRDYFIDYHTHTVSERSLADKAIDVIIQFVAQNRGKFSDEGALKNMFENYGLISLKDDHIEVKIIANVFKQMLNNHQFQDVNNVVNALRDKGFILADRGRQTTKRSVKDNSGKKQSLVFYHLKLDVEFASILGLTKDKSLLQNWTPSNDNKAAKELFKSANEGIGPSGVHEDF
modifications: selenomethionine in place of methionine
stoichiometry N (crystal structure): 6

B3: HELA-8R ssDNA (ssDNA)
DNA: CGCTTTAAAAGAAGTCAACGTCTTACCACTTCCAGTTGTATGCCATACATATCC
binding result (Cch [2]): binds

B4: iter-int-1F ssDNA 40 nt (ssDNA)
DNA: GAGTAATGATATGTGGCTATGTCTTAATATATGTGAAGAA
binding result (LP1413): binds

B5: iter-int-1F/inter-int-2R 40 bp duplex (dsDNA)
DNA 1: B4 DNA
DNA 2: TTCTTCACATATATTAAGACATAGCCACATATCATTACTC
binding result (LP1413): no binding
